Laboratory results taken from paper PMC4197010 (Journal of controlled release : official journal of the …, 2014).
Like-named read-outs stand apart in the source and are kept apart here.

Experiments:
[1] = biological target: T1, chimera leptin receptor (ObR-Fc) (UniProt P48356 22-839); assay: SPR
T1 sequence (looked up): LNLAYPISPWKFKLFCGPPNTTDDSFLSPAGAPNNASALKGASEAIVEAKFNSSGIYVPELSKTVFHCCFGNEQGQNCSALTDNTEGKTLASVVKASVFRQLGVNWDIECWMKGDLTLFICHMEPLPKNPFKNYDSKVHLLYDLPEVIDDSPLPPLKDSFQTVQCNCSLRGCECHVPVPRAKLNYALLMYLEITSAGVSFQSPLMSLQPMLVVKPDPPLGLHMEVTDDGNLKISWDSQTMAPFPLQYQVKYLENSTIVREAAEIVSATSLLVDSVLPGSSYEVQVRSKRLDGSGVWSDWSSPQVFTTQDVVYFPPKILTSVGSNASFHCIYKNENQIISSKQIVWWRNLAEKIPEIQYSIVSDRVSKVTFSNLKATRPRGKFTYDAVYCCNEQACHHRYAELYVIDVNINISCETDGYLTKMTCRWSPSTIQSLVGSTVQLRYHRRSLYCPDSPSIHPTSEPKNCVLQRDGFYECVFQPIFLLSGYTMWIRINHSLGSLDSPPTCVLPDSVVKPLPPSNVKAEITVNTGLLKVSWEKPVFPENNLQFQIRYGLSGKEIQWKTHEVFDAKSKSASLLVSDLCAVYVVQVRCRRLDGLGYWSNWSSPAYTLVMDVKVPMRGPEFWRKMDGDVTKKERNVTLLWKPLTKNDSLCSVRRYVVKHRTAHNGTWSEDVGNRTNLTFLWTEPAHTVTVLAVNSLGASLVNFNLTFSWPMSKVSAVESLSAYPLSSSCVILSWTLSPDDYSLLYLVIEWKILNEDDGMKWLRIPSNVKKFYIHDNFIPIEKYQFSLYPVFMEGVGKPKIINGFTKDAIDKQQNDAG

[2] = biological target: T1, chimera leptin receptor (ObR-Fc); assay: SPR; remark: listed apart in the source

Kd [1]: 0.1 nM | Kd [2]: 0.337 nM
B1: Mouse recombinant leptin (ligand, UniProt P41160 22-167, looked up)
chain: VPIQKVQDDTKTLIKTIVTRINDISHTQSVSAKQRVTGLDFIPGLHPILSLSKMDQTLAVYQQVLTSLPSQNVLQIANDLENLRDLLHLLAFSKSCSLPQTSGLQKPESLDGVLEASLYSTEVVALSRLQGSLQDILQQLDVSPEC
